{"source": "paper PMC8940645", "key": {"[1]": {"assay": "confocal immunofluorescence, giantin co-staining", "conditions": "glycan lost; control: wild type"}, "[2]": {"assay": "kifunensine 5 μM time course, R4-ICD immunoblot", "conditions": "glycan changed form; control: 0 h kifunensine"}, "[3]": {"assay": "NGI-1 overnight, R4-ICD immunoblot", "conditions": "glycan lost; control: vehicle"}, "[4]": {"assay": "active lysate incubation, R4-ICD/FGFR4 immunoblot ratio", "conditions": "glycan lost; control: wild type"}}, "data": [{"substance": "FGFR4: N322Q", "values": [{"measurement": "localisation_or_trafficking", "setting": "[1]", "value": "no change"}]}, {"substance": "FGFR4: kifunensine 16 h", "values": [{"measurement": "other: proteolytic processing", "setting": "[2]", "value": "no change"}]}, {"substance": "FGFR4: NGI-1 10 μM", "values": [{"measurement": "other: proteolytic processing", "setting": "[3]", "value": "increases"}]}, {"substance": "FGFR4: kifunensine 8 h", "values": [{"measurement": "other: proteolytic processing", "setting": "[2]", "value": "increases"}]}, {"substance": "FGFR4: N311Q", "values": [{"measurement": "other: proteolytic processing, other: relative scale 0 to 3+", "setting": "[4]", "value": "decreases, ++ vs +++"}, {"measurement": "localisation_or_trafficking", "setting": "[1]", "value": "no change"}]}, {"substance": "FGFR4: NGI-1 100 μM", "values": [{"measurement": "other: proteolytic processing", "setting": "[3]", "value": "no change"}]}, {"substance": "FGFR4: N290Q", "values": [{"measurement": "other: proteolytic processing, other: relative scale 0 to 3+", "setting": "[4]", "value": "abolishes, 0 vs +++"}, {"measurement": "localisation_or_trafficking", "setting": "[1]", "value": "no change"}]}]}
